Test results published in patent publication US20230051872A1, “Multivalent D-Peptidic Compounds for Target Proteins” (Reflexion Pharmaceuticals, Inc., priority 2019, published 2023).
Numbering of substitutions follows the chain as printed. One block for each molecule: values may come before it.

Legend:
[1] = molecular target: PD-1/PD-L1 complex (Homo sapiens, UniProt Q9NZQ7); conditions: in vitro, reference 31; read-out: IC50, dissociation of PD-1/PD-L1 complex; cited from earlier work
[2] = Subcutaneous immunization, ELISA for antigen-specific serum IgG (anti-drug antibodies); format: in vivo, BALB/c mice; conditions: repeated subcutaneous immunization with adjuvant, Days 0, 21, 35; serum to Day 42
Experimental: Adjuvant was purchased from TiterMax. […] All the procedures related to animal handling, care and treatment in the study were performed according to the guidelines set forth in an ACUP protocol for polyclonal antisera production in mice, approved by the Institutional Animal Care and Use Committee (IACUC) of Josman LLC.

[3] = molecular target: Human PD-1-Fc (R&D Systems cat #1086-PD-050), biotinylated (human) (UniProt Q15116); test: SPR (Table 2)
Sequence of Human PD-1-Fc (R&D Systems cat #1086-PD-050), biotinylated (human) (Q15116 25-167 limits assumed): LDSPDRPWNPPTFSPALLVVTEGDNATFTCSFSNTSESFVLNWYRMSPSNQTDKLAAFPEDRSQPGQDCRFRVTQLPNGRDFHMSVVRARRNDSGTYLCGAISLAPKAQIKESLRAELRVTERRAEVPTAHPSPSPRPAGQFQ

[4] = molecular target: Human PD-1-Fc (R&D Systems cat #1086-PD-050), biotinylated (human) (UniProt Q15116); test: SPR, D-peptidic compound on natural L-PD-1 (Example 1)

Sequence of PD-1/PD-L1 complex (Q9NZQ7 19-238 limits assumed, one chain of several): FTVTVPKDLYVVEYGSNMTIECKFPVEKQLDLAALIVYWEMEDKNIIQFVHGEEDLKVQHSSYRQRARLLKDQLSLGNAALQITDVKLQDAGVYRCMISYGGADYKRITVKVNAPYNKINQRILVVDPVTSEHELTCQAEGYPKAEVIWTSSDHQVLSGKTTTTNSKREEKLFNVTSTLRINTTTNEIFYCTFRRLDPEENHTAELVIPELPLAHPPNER

Molecule: C[C@@H](O)[C@H](NC(=O)N[C@@H](CC(N)=O)c1nc([C@H](N)CO)no1)C(=O)O [CA-170]
- IC50 [1]: 5000 to 10000 µM

Molecule: nivolumab
- anti-drug antibody response (antigen-specific serum IgG) [2]: strong serum IgG titers

Continued, values first:

- Kd [3]: 1.51 µM
- Kd [4]: 0.625 µM
B1: RFX-977296 (designed binder)
chain: TIDQWLLKNAKEDAIAELKKAGITSDLYFNWINVAGSVSSVNFHKNYILKAHA
modifications: D-protein

- Kd [3]: 0.114 µM
B2: 977978 (designed binder)
chain: B1 chain with S25C
modifications: not fully specified; D-protein
